According to patent US20260210971A1 (Pfizer, published 2026):
Where “and” joins values, the source holds several entries; their conditions need not be identical. Equal values may be shown once.

How the values were obtained:
[1] = biological target: T1, recombinant soluble human TL1A (human, UniProt O95150 71-251); assay: flow cytometry, inhibition of the binding of 10 µg/mL biotinylated TL1A to DR3-transfected HEK293 cells
T1 construct: Homotrimer, expressed in HEK293 and purified over HitrapNTA; no tag is described; Used biotinylated in the HTRF assay and in flow cytometry; also called rsTL1A; hTL1A
T1 sequence: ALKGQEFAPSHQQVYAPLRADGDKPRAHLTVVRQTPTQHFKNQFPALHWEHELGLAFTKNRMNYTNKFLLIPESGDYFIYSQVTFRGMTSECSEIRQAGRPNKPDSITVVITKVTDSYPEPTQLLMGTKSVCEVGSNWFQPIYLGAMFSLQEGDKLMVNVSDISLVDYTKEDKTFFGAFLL

[2] = biological target: T2, endogenous TL1A of stimulated cynomolgus monkey peripheral blood (cynomolgus monkey, UniProt G7PRK8 72-251); assay: MSD ligand-binding assay of 1D1 1.31-free soluble TL1A in plasma of cynomolgus whole blood stimulated 24 h with immune complex + IL-12/IL-18 (representative experiment)
T2 construct: also called sTL1A (cynomolgus)
T2 sequence: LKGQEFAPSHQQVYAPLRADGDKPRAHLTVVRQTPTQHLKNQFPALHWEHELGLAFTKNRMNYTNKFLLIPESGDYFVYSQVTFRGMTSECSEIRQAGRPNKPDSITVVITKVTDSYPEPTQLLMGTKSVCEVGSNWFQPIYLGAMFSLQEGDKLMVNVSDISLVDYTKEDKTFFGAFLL
Experimental: Controls included stimulation without antibody as well as no, or single stimulation controls (only IC or only IL-12/IL-18) in triplicate. After 24 hours of culture at 37° C., 200 μL of 5% bovine serum albumin in PBS were added and mixed well with the 100 μL of blood cultures to dilute plasma (dilution factor: 3). […] IFNγ was measured using the MSD human IFNγ kit (Catalog No. K151AEB-1) following the manufacturer's instructions. […] The following day, plates were washed three times with 150 μL per well of 0.1% Tween 20 in PBS, followed with 150 μL per well of blocking solution (5% bovine serum albumin in PBS), then the plates were incubated at room temperature for 1 hour with orbital shaking (1500 rpm). […] Plates were incubated at room temperature for 2 hours with orbital shaking (1500 rpm) followed by the same plate wash protocol mentioned above. TL1A standard curves were generated using recombinant cynomolgus monkey soluble TL1A. Plates were read following the manufacturer's procedure, standard curve and plasma concentration of the cytokine were calculated using the MSD software per manufacturer's instructions.

[3] = biological target: T1, recombinant soluble human TL1A; assay: cell-based or functional assay
[4] = biological target: T3, endogenous TL1A of stimulated human peripheral blood (human, UniProt O95150 72-251, limits assumed); assay: cell-based or functional assay
T3 sequence (looked up): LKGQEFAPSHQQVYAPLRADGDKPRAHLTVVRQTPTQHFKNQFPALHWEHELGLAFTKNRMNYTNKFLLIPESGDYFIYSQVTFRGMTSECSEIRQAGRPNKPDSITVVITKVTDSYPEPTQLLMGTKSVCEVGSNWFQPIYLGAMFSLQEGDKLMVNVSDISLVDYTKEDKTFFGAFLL

[5] = biological target: T3, endogenous TL1A of stimulated human …; assay: MSD ligand-binding assay of 1D1 1.31-free sTL1A in plasma of stimulated human blood
Experimental: After 24 hours of culture at 37° C., 100 μL of 5% bovine serum albumin in PBS were added and mixed well with the 200 μL of blood cultures to dilute plasma (dilution factor: 1.5). […] IFNγ was measured using the MSD human IFNγ kit (Catalog No. K151AEB-1) following the manufacturer's instructions. […] The following day, plates were washed three times with 150 μL per well of 0.1% Tween 20 in PBS, followed with 150 μL per well of blocking solution (5% bovine serum albumin in PBS), then the plates were incubated at room temperature for 1 hour with orbital shaking (1500 rpm). After the plates were washed as mentioned above, diluted plasma samples were added and incubated at 4° C. overnight. […] TL1A standard curves were generated using recombinant human soluble TL1A. Plates were read following the manufacturer's procedure, standard curve and plasma concentration of the cytokine were calculated with the MSD software.

[6] = biological target: T4, recombinant soluble cynomolgus monkey TL1A (cynomolgus monkey, UniProt O95150 72-251 (human entry)); assay: SPR, IgG captured on anti-hIgG, TL1A injected;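 also: biacore surface plasmon resonance on a dextran sensor chip, double-referenced sensorgrams fitted to a one-to-one binding model, KD taken as dissociation over association rate constant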
T4 construct: also called cyno rsTL1A; cyno TL1A
T4 chain: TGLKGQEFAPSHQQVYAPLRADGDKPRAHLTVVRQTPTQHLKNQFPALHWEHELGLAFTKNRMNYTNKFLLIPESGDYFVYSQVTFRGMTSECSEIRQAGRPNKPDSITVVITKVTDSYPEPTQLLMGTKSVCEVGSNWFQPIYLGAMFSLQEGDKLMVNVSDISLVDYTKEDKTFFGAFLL
Text: (§1) The antibodies were captured via directly immobilized anti-human IgG (GE Healthcare) onto a carboxymethylated dextran sensor chip surface (CM5) using a Biacore T100 or T200 instrument. Anti-human IgG was immobilized through amine coupling to densities of approximately 4,000-13,000 response units (RU). […] At the end of each cycle, the entire anti-hIgG surface was regenerated by a 30-second pulse of 3M MgCl₂ followed by two consecutive 15-second pulses of PBS-NET. […] All injections were performed at 25° C. at a collection rate of 10 Hz. All sensorgrams were double referenced by using both a control surface and buffer injections. Rate constants were determined by fitting the data to a 1:1 model in Biacore T100, T200 evaluation software v1.0, or BIAevaluation software v4.1.1 and the equation KD=Kd/kₐ.
(§2) At the highest cytokine concentrations, the dissociation phase was sometimes extended to 60 minutes to achieve at least a 5% decrease in binding signal.

[7] = biological target: T2, endogenous TL1A of stimulated …; assay: MSD ligand-binding assay of 1D1 1.31-free sTL1A in plasma of stimulated cynomolgus blood; mean of n=6 monkeys
Experimental: Cynomolgus monkey peripheral blood treated with 1 ng/ml recombinant human IL-12 and 10 ng/ml recombinant human IL-18 was stimulated by immune complex coated plates for 24 hours at 37° C. […] Plasma was prepared from these samples and IFNγ was measured in the plasma samples by a quantitative immune-ligand binding assay using a Mesoscale (MSD) kit. […] Cynomolgus monkey peripheral blood treated with 1 ng/ml recombinant human IL-12 and 10 ng/ml recombinant human IL-18 was stimulated by immune complex coated plates for 24 hours at 37° C.
For IC and IL-12 and IL-18 stimulation, cynomolgus monkey blood was collected in sodium heparin coated tubes and used within one hour after the blood draw. Human IL-12 (1 ng/mL final concentration) and human IL-18 (10 ng/ml final concentration) were mixed in with blood prior to addition of 95 μL of the blood/IL-12/IL-18 mixture to each well of the IC coated plates.

[8] = biological target: T5, recombinant soluble murine TL1A (mouse, UniProt Q5UBV8 75-252); assay: KinExA, equilibrium in solution
T5 construct: also called murine rsTL1A; mouse TL1A
T5 chain: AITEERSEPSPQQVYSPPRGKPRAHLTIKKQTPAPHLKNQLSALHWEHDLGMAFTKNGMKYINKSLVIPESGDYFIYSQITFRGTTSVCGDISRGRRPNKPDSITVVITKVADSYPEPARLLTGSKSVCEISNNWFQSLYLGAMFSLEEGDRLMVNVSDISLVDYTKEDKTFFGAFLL
Experimental: (§3) This assay involves pre-incubating antibody: antigen mixtures in solution long enough to reach equilibrium before measuring the level of unbound antibody using a solid phase component. […] Beads were blocked for 1 hour with PBS plus 10 mg/ml bovine serum albumin (bovine serum albumin, Sigma) at room temperature before being diluted up to a total of 27 ml in PBS. […] For each titration series, a buffer sample and a sample of antibody alone were included. Each antibody: TL1A mixture was tumbled at room temperature for at least six hours to reach equilibrium and then each mixture was injected over the solid phase of TL1A-coated beads in the instrument flow cell. […] Beads were replenished between each sample. Binding signals of detected free antibody were converted to percentage of free, unbound antibody as measured by the antibody only sample and plotted versus each concentration of TL1A. For each antibody, the KD and ABC controlled curves were fit simultaneously using n-Curve Analysis software v3.1.4 to fit the curves to the ‘affinity, unknown ligand’ model and measure an equilibrium KD.
(§4) Solution-based kinetic exclusion assays (KinExA) were carried out as an orthogonal technique to measure equilibrium KD values.

[9] = biological target: T1, recombinant soluble human TL1A; assay: KinExA, equilibrium in solution
Experimental: as §3, §4

[10] = biological target: T4, recombinant soluble cynomolgus monkey …; assay: KinExA, equilibrium in solution
Experimental: as §3, §4

[11] = biological target: T1, recombinant soluble human TL1A; assay: plate ELISA, TL1A coated at 1 µg/mL, detection with anti-human IgG HRP
Experimental: (§5) The first 6 rows of each plate were coated with the test article cytokine, and the last two rows were coated with TL1A as a positive control. Rows 1 and 2 were duplicate rows where the test article cytokine was tested for binding to increasing concentrations of its corresponding anti-cytokine positive control antibody. […] The experiment for each cytokine was repeated three times.
(§6) Plates were incubated overnight at 4° C. After washing the plates three times (3×) with 300 μL PBST using a plate washer (model ELx405; BioTek), plates were blocked by incubating for 1 hour at room temperature with 300 μL of blocking buffer (PBST+0.5% BSA) in each well. […] Plates were then washed 5 times with PBST using the plate washer.

[12] = biological target: T1, recombinant soluble human TL1A; assay: SPR, IgG captured on anti-hIgG, TL1A injected; off rate too slow to measure
[13] = biological target: T6, recombinant soluble rabbit TL1A (rabbit); assay: SPR, IgG captured on anti-hIgG, TL1A injected
T6 construct: also called rabbit rsTL1A
T6 chain: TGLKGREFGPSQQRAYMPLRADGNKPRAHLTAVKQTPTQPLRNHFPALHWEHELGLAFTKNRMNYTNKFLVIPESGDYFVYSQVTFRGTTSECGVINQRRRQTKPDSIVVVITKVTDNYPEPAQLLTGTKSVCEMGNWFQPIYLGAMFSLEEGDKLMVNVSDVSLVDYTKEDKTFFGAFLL
Text: as §1, §2

[14] = biological target: T7, recombinant soluble rat TL1A (rat, UniProt Q8K3Y7 76-252); assay: SPR, IgG captured on anti-hIgG, TL1A injected
T7 construct: also called rat rsTL1A
T7 sequence: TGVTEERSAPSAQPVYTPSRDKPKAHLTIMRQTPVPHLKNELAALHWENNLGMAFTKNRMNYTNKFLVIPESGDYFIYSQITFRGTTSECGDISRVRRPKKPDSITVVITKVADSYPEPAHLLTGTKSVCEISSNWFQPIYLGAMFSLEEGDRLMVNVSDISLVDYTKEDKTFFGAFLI
Text: as §1, §2

[15] = biological target: T1, recombinant soluble human TL1A; assay: plate ELISA, TL1A coated, antibody titrated; plate of TNF β
Experimental: as §5, §6

[16] = biological target: T1, recombinant soluble human TL1A; assay: plate ELISA, TL1A coated, antibody titrated; plate of Lymβ 2
Experimental: as §5, §6

B1: 1D1 1.31 (antibody, human IgG1, kappa, V domains shown)
VH: QVQLVQSGAEVKKPGASVKVSCKASGYDFTYYGISWVRQAPGQGLEWMGWISTYNGNTHYARMLQGRVTMTTDTSTRTAYMELRSLRSDDTAVYYCARENYYGSGAYRGGMDVWGQGTTVTVSS
VL: EIVLTQSPATLSLSPGERATLSCRASQSVSSYLAWYQQKPGQAPRLLIYDASNRATGIPARFSGSGSGTDFTLTISSLEPEDFAVYYCQQRSNWPWTFGQGTKVEIKR
notes: Full length human IgG1 with effector function-null mutations in the Fc, produced in CHO cells; Used biotinylated for staining of monocytes
B1 was tested, and the IC50 [1] was 18700 ng/mL, the IC50 [2] was 0.000169 nM and the “Caspase Assay, average IC50” value [3] was 0.106 nM. The “NFkB Assay, average IC50” value [3] was 0.15 nM, the “HWB Assay, average IC50” value [4] was 0.00167 nM and the IC50 [5] was 0.00106 nM. For the same binder, the Kd [6] was 0.081 nM, the koff [6] was 3.6e-05 s⁻¹ and the kon [6] was 450000 M⁻¹ s⁻¹. It also gave a t1/2 [6] of 5.34 h, an IC50 [7] of 0.022 nM and a Kd [8] of 0.0953 nM. For the same binder, the Kd [9] was 0.00138 nM and 0.0036 nM, the Kd [10] was 0.0035 nM and the “EC50 (read off the curve)” value [11] was about 8 ng/mL. The Kd [12] was under 0.1 nM, the Kd [13] was 0.361 nM and the koff [13] was 0.00011 s⁻¹. The kon [13] was 320000 M⁻¹ s⁻¹, the t1/2 [13] was 1.69 h and the Kd [14] was 4.86 nM. The koff [14] was 0.0026 s⁻¹, the kon [14] was 540000 M⁻¹ s⁻¹ and the t1/2 [14] was 4.38 min. It also gave an EC50 [15] of 0.0023 ng/mL and an EC50 [16] of 0.0058 ng/mL.
